Source: patent publication US20100003258A1 (AVEO PHARMACEUTICALS, published 2010)

Columns and labels:
[1] = target: T1, recombinant human FGFR3 IIIb Fc fusion protein (human, UniProt P22607-2 23-377, limits assumed); experiment: ECL competition assay: inhibition of rhFGFR3 IIIb Fc binding to coated FGF1 (competitor FGF1)
T1 construct: Bought reagent; the IIIb splice isoform is meant; also called rhFGFR3 IIIb Fc; hFGFR3 IIIb; not shown: Fc fragment (removable by Factor Xa, detected with anti-human IgG)
T1 sequence (looked up): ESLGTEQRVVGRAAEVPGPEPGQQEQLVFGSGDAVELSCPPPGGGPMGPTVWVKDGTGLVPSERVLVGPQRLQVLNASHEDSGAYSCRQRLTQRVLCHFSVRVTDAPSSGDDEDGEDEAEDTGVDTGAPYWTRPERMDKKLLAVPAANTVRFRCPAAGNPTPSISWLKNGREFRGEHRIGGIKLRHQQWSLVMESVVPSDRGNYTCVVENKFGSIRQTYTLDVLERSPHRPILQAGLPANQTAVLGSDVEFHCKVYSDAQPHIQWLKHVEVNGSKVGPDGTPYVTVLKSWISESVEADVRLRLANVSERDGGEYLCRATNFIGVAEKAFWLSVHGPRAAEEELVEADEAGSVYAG
Description: (§1) The antibodies were tested by ECL (Electrochemiluminescence) assay for inhibition of hFGFR3 IIIB binding to FGF-1. […] The plates then were washed 3 times with PBS and blocked with 200 μl of PBS containing 5% BSA (Sera Care Life Sciences, Catalog No. AP-4510-80) and 5 μg/mL heparin (Sigma, Catalog No. H4784) for 1 hour at room temperature. The antibodies (concentration range: 0.029-30 μg/mL) were incubated for 1 hour at room temperature with 1.7 μg/mL rhFGFR3 IIIb Fc (R&D Systems, Catalog No. 1264-FR-050) and 5 μg/mL heparin. After washing the plates 3 times with PBS, 25 μl of the antibody-receptor mixture was added to the plates for another hour at room temperature with agitation. The plates were washed three times with PBS and incubated with 25 μl of 1 μg/mL ST-anti-human IgG antibody (Meso Scale Discovery, Catalog No. R32AJ-1) for 1 hour at room temperature with agitation. The plates then were washed 3 times with PBS, and 150 μl of 1× read buffer (Meso Scale Discovery, Catalog No. R92TC-1) was added to each well before the plates were analyzed on a Sector Imager 2400 (Meso Scale Discovery) instrument.

[2] = target: T1, recombinant human FGFR3 IIIb Fc fusion …; experiment: SPR (Biacore T100), antibody captured on anti-mouse Ig, rhFGFR3 IIIb Fc as analyte, 25 C
Description: (§2) The binding affinities and kinetics of interaction of the monoclonal antibodies (15D8, 27H2, 2G4, and 4E7(7D12)) produced in Example 1 against recombinant human FGFR3 (IIIb and IIIc isoforms) Fc fusion protein (rhFGFR3 IIIb Fc or rhFGFR3 IIIc Fc) were measured by surface plasmon resonance using a Biacore™ T100 (Biacore) instrument.
(§3) Rabbit anti-mouse immunoglobulins (Biacore, Catalog No. BR-1005-14) were immobilized on carboxymethylated dextran CM4 sensor chips (Biacore, Catalog No. BR-1005-34) by amine coupling (Biacore, Catalog No. BR-1000-50) using a standard coupling protocol according to manufacturer's instructions.
(§4) The antibodies were captured in an individual flow cell at a flow rate of 10 μl/min. Injection time was varied for each antibody to yield approximately 40-50 RU of antibody captured for each cycle. Buffer or rhFGFR3 IIIb Fc (R&D Systems, Catalog No. 1264-FR-050) or rhFGFR3 IIIc Fc (R&D Systems, Catalog No. 766-FR-050) diluted in running buffer was injected sequentially over a reference surface (no antibody captured) and the active surface (antibody to be tested) for 300 sec at 60 μl/min. The dissociation phase was monitored for 30 minutes. The surface was then regenerated with two 60-seconds injection of 10 mM Glycine-HCl, pH 1.7 (made from Glycine pH 1.5 (Biacore, Catalog No. BR-1003-54) and pH 2.0 (Biacore, Catalog No. BR-1003-55)) at a flow rate of 60 μl/min. rhFGFR3 Fc concentrations tested were 0.62 nM to 40 nM.

[3] = target: T1, recombinant human FGFR3 IIIb Fc fusion …; experiment: SPR (Biacore T100), antibody captured on anti-mouse Ig, rhFGFR3 IIIb Fc as analyte, 37 C
Description: as §2, §3, §4

[4] = target: T2, recombinant human FGFR3 IIIc Fc fusion protein (human, UniProt P22607 23-375); experiment: SPR (Biacore T100), antibody captured on anti-mouse Ig, rhFGFR3 IIIc Fc as analyte, 37 C
T2 construct: Bought reagent; also called rhFGFR3 IIIc Fc; not shown: Fc fragment (removable by Factor Xa)
T2 sequence (looked up): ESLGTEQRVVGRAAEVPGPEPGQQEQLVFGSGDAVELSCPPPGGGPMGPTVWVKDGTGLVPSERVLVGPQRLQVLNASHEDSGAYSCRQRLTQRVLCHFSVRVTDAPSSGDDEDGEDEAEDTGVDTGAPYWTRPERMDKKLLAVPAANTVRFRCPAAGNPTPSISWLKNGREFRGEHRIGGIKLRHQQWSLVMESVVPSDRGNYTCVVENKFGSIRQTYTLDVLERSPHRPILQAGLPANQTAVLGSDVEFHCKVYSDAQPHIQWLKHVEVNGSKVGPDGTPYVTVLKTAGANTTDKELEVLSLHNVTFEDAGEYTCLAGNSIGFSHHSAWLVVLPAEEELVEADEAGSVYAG
Description: as §2, §3, §4

[5] = target: T1, recombinant human FGFR3 IIIb Fc fusion …; experiment: ECL competition assay: inhibition of rhFGFR3 IIIb Fc binding to coated FGF1 (competitor FGF1); 15D8 IgG1, not Fab; average of n = 3
Description: as §1

Maximum Neutralization (%) [1]: 80.5% | Kd [2]: 2.6 nM | koff [2]: 0.00033 s⁻¹ | kon [2]: 200000 M⁻¹ s⁻¹ | Kd [3]: 3.2 nM | koff [3]: 0.0003 s⁻¹ | kon [3]: 94000 M⁻¹ s⁻¹ | Kd [4]: 1.8 nM | koff [4]: 0.00018 s⁻¹ | kon [4]: 120000 M⁻¹ s⁻¹ | IC50 [5]: 15.4 nM
B1: anti-FGFR3 monoclonal antibody 15D8 (antibody, mouse IgG1, kappa)
heavy: EIQLQQSGPELVKPGASVKVSCKASGYAFTSYNMYWVKQSHGKSLEWIGYIDPYNGGTSYNQKFKGKATLTVDKSSSTAYMHLNSLTSEDSAVYYCAREGGNYEAWFAYWGQGTLVTVSAAKTTPPSVYPLAPGSAAQTNSMVTLGCLVKGYFPEPVTVTWNSGSLSSGVHTFPAVLQSDLYTLSSSVTVPSSTWPSETVTCNVAHPASSTKVDKKIVPRDCGCKPCICTVPEVSSVFIFPPKPKDVLTITLTPKVTCVVVDISKDDPEVQFSWFVDDVEVHTAQTQPREEQFNSTFRSVSELPIMHQDWLNGKEFKCRVNSAAFPAPIEKTISKTKGRPKAPQVYTIPPPKEQMAKDKVSLTCMITDFFPEDITVEWQWNGQPAENYKNTQPIMDTDGSYFVYSKLNVQKSNWEAGNTFTCSVLHEGLHNHHTEKSLSHSPGK
light: QIVLTQSPALMSASPGEKVTMTCSASSSVSYMYWYQQKPRSSPKPWIYLTSYLASGVPARFSGSGSGTSYSLTISSMEAEDAATYYCQQWSSYPLTFGAGTKLELKRADAAPTVSIFPPSSEQLTSGGASVVCFLNNFYPKDINVKWKIDGSERQNGVLNSWTDQDSKDSTYSMSSTLTLTKDEYERHNSYTCEATHKTSTSPIVKSFNRNEC
notes: also called 15D8 IgG1; murine antibody 15D8
